Measurements reported in PMC10746227, “The two-component system WalKR provides an essential link between cell wall homeostasis and DNA replication in Staphylococcus aureus” (mBio, 2023).

Target: T1, WalK-LgBIT (native WalK) (S. aureus, UniProt Q2FKN7 1-608)
T1 construct: WalK, transmembrane sensor histidine kinase of the WalKR two-component system, S. aureus NRS384 (USA300); open reading frame with the stop codon removed; also called WalK Wt; source: S. aureus NRS384, from plasmid pLgBIT, in living cells
T1 sequence (looked up): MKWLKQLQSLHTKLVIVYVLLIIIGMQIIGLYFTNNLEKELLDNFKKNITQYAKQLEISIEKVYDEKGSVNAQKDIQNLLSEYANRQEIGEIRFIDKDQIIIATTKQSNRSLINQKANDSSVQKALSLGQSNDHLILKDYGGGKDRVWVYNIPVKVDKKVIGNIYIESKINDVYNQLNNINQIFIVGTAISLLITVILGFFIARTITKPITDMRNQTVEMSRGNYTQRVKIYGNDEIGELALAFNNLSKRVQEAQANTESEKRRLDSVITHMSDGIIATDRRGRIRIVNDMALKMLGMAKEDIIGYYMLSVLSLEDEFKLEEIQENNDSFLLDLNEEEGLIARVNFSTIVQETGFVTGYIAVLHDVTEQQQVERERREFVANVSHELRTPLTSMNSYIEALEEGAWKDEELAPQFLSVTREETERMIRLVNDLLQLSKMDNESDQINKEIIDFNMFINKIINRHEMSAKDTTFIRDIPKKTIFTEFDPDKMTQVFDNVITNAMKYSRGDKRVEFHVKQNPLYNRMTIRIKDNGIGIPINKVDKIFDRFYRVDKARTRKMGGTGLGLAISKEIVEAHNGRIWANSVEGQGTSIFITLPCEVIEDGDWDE
Test: split reporter (BiFC, NanoBiT); WalR-SmBIT (pSmBIT) and WalK-LgBIT (pLgBIT) alleles together in living S. aureus NRS384; LB with chloramphenicol, kanamycin and Nano-Glo substrate 1:5,000, 37°C, 96-well plate; OD600nm and light emission (RLU) read every 10 min over 8 h; lag and exponential phase
Details: partners not purified

B1: WalR_(T101A)-SmBIT (natural protein)
chain: MARKVVVVDDEKPIADILEFNLKKEGYDVYCAYDGNDAVDLIYEEEPDIVLLDIMLPGRDGMEVCREVRKKYEMPIIMLTAKDSEIDKVLGLELGADDYVAKPFSTRELIARVKANLRRHYSQPAQDTGNVTNEITIKDIVIYPDAYSIKKRGEDIELTHREFELFHYLSKHMGQVMTREHLLQTVWGYDYFGDVRTVDVTIRRLREKIEDDPSHPEYIVTRRGVGYFLQQHE
notes: WalR, response regulator, S. aureus NRS384 (USA300); open reading frame with the stop codon removed; also called "down" mutant; source: S. aureus NRS384, from plasmid pSmBIT, in living cells
Question: For B1, which “fold change of the maximal level of interaction against native WalK/WalR” value is on record?
Answer: The value was 1.5 fold.
